This note sets out measurements from the nanobody polyreactivity screen of Harvey et al. (2022).

The data set is described as follows: yeast display, Sf9 membrane polyspecificity reagent, FACS + sequencing; frameworks hold sequencing errors. A digest of the protocol: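 In a synthetic yeast display library (Saccharomyces cerevisiae BJ5465), nanobody expression was induced with galactose for 36–48 hours. FACS gates were set low and high (top ~1%) using anti-HA fluorescence for expression and streptavidin fluorescence for binding of the Sf9 membrane reagent. Each polyreactivity label is drawn from the gate of origin.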
For “QVQLVESGGGLVQAGGSLRFSCAASGRIFRFYAMGWYRQAPGKERELVAAISSRGGSTYYADSVKGRFTISRDNAKNTVYLQMNSLKPEDTAVYYCNAYGSTSQLDYWGQGTQVTVSS”, the “polyreactivity (PSR sort gate)” value is “high polyreactivity”.

Take “QVQLVESGGGLVQAGGSLRFSCAASGRIFRYNAMGWYRQAPGKARELVAAISRSGGSTYYADSVKGRFTISRDNAKNTVYLQMISLKPEDTAVYYCAVGSPYGGRAPCVRGGDYWGQGTQVTVSS”: the “polyreactivity (PSR sort gate)” value was “high polyreactivity”.

On to “QVQLVESGGGLVQAGGSLRFSCAASGRTFNQNAMGWYRQAPGKERELVAAITSRGGSTFYADSVKGRFTISRDNAKNTVYLQMNSLKPEDTAVYYCNAKSWRYYTMGYWGQGTQVTVSS”, for which the “polyreactivity (PSR sort gate)” value is reported as “high polyreactivity”.

Turning to “QVQLVESGGGLVQAGGSLRFSCAASGRTFNWYAMGWYRQAPGKERELVAAISSRGGSTYADSVKGRFTISRDNAKNTVYLQMNSLKPEDTAVYYCAARHHGTKYDYWGQGTQVTVSS”, the “polyreactivity (PSR sort gate)” value is listed as “low polyreactivity”.

Take “QVQLVESGGGLVQAGGSLRFSCAASGRTIYYNTMGWYRQAPGKERELVAAINYGGSTYYADSVKGRFTISRDNAKNTVYLQMHSLKPEDTAVYYCNAVTRPKTWRYDYWGQGPQVTVSS”: the “polyreactivity (PSR sort gate)” value is on record as “high polyreactivity”.

For the sequence “QVQLVESGGGLVQAGGSLRFSCAASGSIFDYNAMGWYRQAPGKERELVAAIDWSGSSTYYADSVKGRFTISRDNAKNTVYLQMNSLKPEDTAVYYCNALAYYGMDYWGQGTQVTVSS”, the “polyreactivity (PSR sort gate)” value is “low polyreactivity”.

For “QVQLVESGGGLVQAGGSLRFSCAASGSIFWYNAMGWYRQAPGKERELVARISSSGDSTYYADSVKGRFTISRDNAKNTVYLQMNSLKPEDTAVYYCNVDYWSISESSWGYYTSYDYWGQGTQVTVSS”, the “polyreactivity (PSR sort gate)” value is “high polyreactivity”.

For “QVQLVESGGGLVQAGGSLRFSCAASGSTFHRYVMGWYRQAPGKERELVADINSTGGSTYYADSVKGRFTISRDNAKNTVYLQMNSLKPEDTAVYYCARVTRRGPGFSTLYSRYDYWGQGTQVNVSS”, the “polyreactivity (PSR sort gate)” value is listed as “low polyreactivity”.

In the case of “QVQLVESGGGLVQAGGSLRFSCAASGSTFRAYAMGWYRQAPGKEREFVASISWSGGRTYYADSVKGRFTISRDNAKNTVYLQMNSLIPEDTAVYYCAADYDVLDYGNLRYGFDYWGQGTKVTVSS”, the “polyreactivity (PSR sort gate)” value is recorded as “low polyreactivity”.

Regarding “QVQLVESGGGLVQAGGSLRFSCAASGSTFVYYAMGWYRQAPGKERELVAAITFGGGSTYYADSVKGRFTISRDNAKNTVYLQMNSLKPEDTAVYYCAVYWDDGSAYPPLIVGYDYWGQGTQVTVSS”, the “polyreactivity (PSR sort gate)” value is listed as “low polyreactivity”.

As for “QVQLVESGGGLVQAGGSLRFSCAASRLTFYWYAMGWYRQPPGKERELVAGISWSGGSTYADSVKGRFTITRDNAKNTVYLQLNSLKPEDTAVYYCAADTYYYRGQSYYYWGQGTEVTVSS”, the “polyreactivity (PSR sort gate)” value was “high polyreactivity”.

Take “QVQLVESGGGLVQAGGSLRFSCAPSGRILYKYAMGCYRQAPGKERELVAAISWRGTTTYYADSVKGRFTISRDNAKNTVYLQMNSLKPEDTAVYYCNARVRVRLGRNWSSYYYWGQGTQVTVSS”: the “polyreactivity (PSR sort gate)” value is “high polyreactivity”.

In the case of “QVQLVESGGGLVQAGGSLRFSCDASGRTFRYYAMGWYRQAPGKERELVAAIRSGGTTYYADSVKGRFTISRDNAKNTVYFQMNSLKPEDTAVYYCAAKVPWKYSRVYRVGFDYWGQGTQVTVSS”, the “polyreactivity (PSR sort gate)” value is on record as “high polyreactivity”.

On to “QVQLVESGGGLVQAGGSLRFSCSASGRTFLIYAMGWYRQAPGKARELVAAINFSGGNTYYADSVKGRFTISRDNAKNTVYLQMNSLKPEDTAVYYCAAGVYSFRYDYWGQGTQVTVSS”, for which the “polyreactivity (PSR sort gate)” value is on record as “low polyreactivity”.

Turning to “QVQLVESGGGLVQAGGSLRIICAASGRTLSGYAMGWYRQAPGKERELVAAISSDGRTYYADSVKGRFTISRDNAKNTVYLQMNSLKPEDTAVYYCAARANPYVLKYYYWGQGTQVTVSS”, the “polyreactivity (PSR sort gate)” value is listed as “high polyreactivity”.

With “QVQLVESGGGLVQAGGSLRISCAASGFIFGKNDMGWYRQATWKERELVAAITIGGSTNYADSVKGRFTFSRDNAKNTVYLQMNSLKPEDTAVYYCNADSYHYGTSLYNYWGQGTQLTVSS”, the “polyreactivity (PSR sort gate)” value was “low polyreactivity”.

For the sequence “QVQLVESGGGLVQAGGSLRISCAASGFIFRLYAMGWYRQAPGKERELVAAIRWSGGSTTYADSVKGRFTISRDNAKNTVYLQMNSLNPEDTAVYYCAATAGRRSVTYGYWGQGTQVTVSS”, the “polyreactivity (PSR sort gate)” value is on record as “high polyreactivity”.

“QVQLVESGGGLVQAGGSLRISCAASGFIFRSYAMGWDRKAPGKERELVAAITRSGGSTYYADSVKGRFTISRDNAKTTVYLQMNSLKPEDTAVYYCATRRYWYYILDYGGQGTQVTVSS”: the “polyreactivity (PSR sort gate)” value is given as “high polyreactivity”.

Consider “QVQLVESGGGLVQAGGSLRISCAASGFIFTYYAMGWYRQAPGKERELVAAITKSGTSTYYADSVKGRFTISRDNAKNTVYLQMNSLKPEDTAVYYCNAVLWWDWEYDFYYWGQGTQVTVSS”, for which the “polyreactivity (PSR sort gate)” value is on record as “high polyreactivity”.

With “QVQLVESGGGLVQAGGSLRISCAASGFIFWYYTMGRYIQAPGKERELVAAINSGGSTNYADSVKGRFTISRDNAKNTVYLQMNSLKPEDTAVYYCAALVCYSGELFYYWGQGTQVTVSS”, the “polyreactivity (PSR sort gate)” value is listed as “low polyreactivity”.

Take “QVQLVESGGGLVQAGGSLRISCAASGFIFYGNAMGWYIQAPGKERELVASITGGGRTYYADSVKGRFTISRDNAKNTVYLQMNSLKPEDTAVYYCATLLAYRLGSGYDSWGQGTQVTVSS”: the “polyreactivity (PSR sort gate)” value was “high polyreactivity”.

Turning to “QVQLVESGGGLVQAGGSLRISCAASGFIFYWNAMGWYRQAPGKERELVAGITSGGDTNYADSVKGRFTISRDNAKNTVYLQINSLKPEDTAVYYCAAEGFRGYGYWGQGTQVTVSS”, the “polyreactivity (PSR sort gate)” value was “low polyreactivity”.

In the case of “QVQLVESGGGLVQAGGSLRISCAASGFTFPSYAMGWYRQAAGKERELVAAINRRGGSTNYADSVKGRFTISRDNAKNTDYLQMNSLKPEDTAVYYCAKQPRLGKYEYYYWGQGTQVTVSS”, the “polyreactivity (PSR sort gate)” value was “high polyreactivity”.

For the sequence “QVQLVESGGGLVQAGGSLRISCAASGFTFSAYAMGWYRQAPGKERELVAAISGSGGRTYYADSVKGRFTISRDNAKNTVYLQMNSLKPEDTAVYYCATSTAGGRETVSQYRYYWGHGTQVTVSS”, the “polyreactivity (PSR sort gate)” value is “high polyreactivity”.

As for “QVQLVESGGGLVQAGGSLRISCAASGFTFVYNTMGWYRQAPGKERELVAAITSRGGSTYYADSVKGRFTISRDNAKNTVYLQMYSLKPEDTAVYYCAAKISVRTSGTRYYYWGQGTQVTVSS”, the “polyreactivity (PSR sort gate)” value was “high polyreactivity”.

With “QVQLVESGGGLVQAGGSLRISCAASGFTFWYYVMGWYRQAPGKERELVAAISSGGSTYYADSVKGRFTISRDNAKNTVYLQINSLKPEDTAVYYCAASYRSATRQFDYWGQGTQVTVSS”, the “polyreactivity (PSR sort gate)” value was “low polyreactivity”.

Consider “QVQLVESGGGLVQAGGSLRISCAASGFTFYRYAMGWYRQAPGKERELVAAISSDGTTYNADSVKGRFTISRDNAKNTVYLQINSLKPEDNAVYYCAKRGYYRSRRYDYWGQGTQVNVSS”, for which the “polyreactivity (PSR sort gate)” value was “high polyreactivity”.

“QVQLVESGGGLVQAGGSLRISCAASGFTFYRYAMGWYRQAPGKESELVAAITRSGRTYYADSVKGRFTISRDNAKNTFYLQMNSLKPEDTAVYYCYADWGLGTQVTVSS”: the “polyreactivity (PSR sort gate)” value is recorded as “high polyreactivity”.

On to “QVQLVESGGGLVQAGGSLRISCAASGGIFRYVMGWYRQAPGKERELVATISGRGGSTYYADSVKGRFTISRDNAKNTVYLQMNSLKPEDTAVYYCATHSWRRAGYEYWGQGTQVTVSS”, for which the “polyreactivity (PSR sort gate)” value is “high polyreactivity”.

As to “QVQLVESGGGLVQAGGSLRISCAASGGIIQYYDMGWYRQAPGKEREFVATISQRGGITYYADSVKGRFTISRDNAKNTVYLQMNSLKPEDTAVYYCAARSYYAVYYWGQGTQVTVSS”, the “polyreactivity (PSR sort gate)” value is reported as “high polyreactivity”.
